Measurements reported in PMC9430671.

Key:
[1] = target: LysP7951_(209-310) (Streptococcus thermophilus phage P7951); test: SEC; analytical gel filtration (Superose 6 10/300 GL, calibrated) of single purified preparations; protein buffer (50 mM HEPES, 500 mM NaCl, 1% glycerol, pH 7), 0.4 mL/min; apparent molecular masses from elution volumes
[2] = target: LysP7951_(209-310) (Streptococcus thermophilus phage P7951); test: SAXS; LysP7951 CTP at 1.00, 1.85, 2.70 mg/mL in protein buffer, 20°C, BM29 beamline ESRF; molecular mass estimated from the scattering data
[3] = target: LysP7951 full-length product (FLP), produced from the wild-type lysP7951 gene (Streptococcus thermophilus phage P7951); test: SEC; analytical gel filtration (Superose 6 10/300 GL, calibrated) of single purified preparations; protein buffer (50 mM HEPES, 500 mM NaCl, 1% glycerol, pH 7), 0.4 mL/min; apparent molecular masses from elution volumes
[4] = target: LysP7951 full-length product (FLP), produced from the wild-type lysP7951 gene (Streptococcus thermophilus phage P7951); test: native MS; purified LysP7951 complex (co-produced, co-purified) in 150 mM ammonium acetate, about 10 μM, nano-ESI Q-TOF, positive mode, collision energy 0 V (15 and 100 V for dissociation)

stoichiometry N [1] | stoichiometry N [2] | stoichiometry N (CTP subunits per FLP) [3] | stoichiometry N (CTP subunits per FLP) [4] | Substance
7 subunits | 6 to 7 subunits | – | – | LysP7951_(209-310) (domain or fragment)
– | – | 4 | 5 | LysP7951 C-terminal product (CTP), produced from the internal translation start site of the wild-type lysP7951 gene (domain or fragment)
